Experiment [1] deals with full length human DPEP-1 displayed on HEK293T / HEK293-6E cells (human) (UniProt P16444). Kind of experiment: flow cytometry, biotinylated negative control VHH at 100 nM on HEK-293T cells overexpressing human DPEP-1, streptavidin-PE; the same number stands in all seven panels.
The target of experiment [2] is T1, full length human DPEP-1 displayed on HEK293T / HEK293-6E cells (human, UniProt P16444 17-385).
T1 construct: whole, on cells; GPI-anchored on the cell surface; also called hDPEP-1
T1 sequence (looked up): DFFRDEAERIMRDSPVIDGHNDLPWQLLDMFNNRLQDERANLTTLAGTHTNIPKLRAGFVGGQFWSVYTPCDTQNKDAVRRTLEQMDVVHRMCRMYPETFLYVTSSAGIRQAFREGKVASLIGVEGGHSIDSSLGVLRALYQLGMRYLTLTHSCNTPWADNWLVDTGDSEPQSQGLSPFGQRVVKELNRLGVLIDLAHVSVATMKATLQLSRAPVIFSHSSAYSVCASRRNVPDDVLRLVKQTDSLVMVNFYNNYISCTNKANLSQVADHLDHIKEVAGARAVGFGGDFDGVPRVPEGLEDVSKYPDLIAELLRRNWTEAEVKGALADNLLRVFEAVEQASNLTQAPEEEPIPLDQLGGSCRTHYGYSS
Description: flow cytometry, biotinylated VHH titrated on HEK-293-6E cells overexpressing hDPEP-1. How it is done:
(§1) VHH concentrations at 50% binding, EC₅₀ values, were calculated from graphs and recorded in Table 5.
(§2) Binding of biotinylated VHHs to hDPEP-1 was detected using streptavidin-phycoerythrin (SPE). The binding profile of the anti-DPEP-1 rabbit pAb (Proteintech, Cat #12222-1-AP) positive control is shown as inset. Binding of the rabbit pAb was detected using goat anti-rabbit IgG antibody conjugated to phycoerythrin (Thermo Fisher, Cat #P-2771MP). Graphs in FIG. 3B with similar maximal fluorescence plateau are grouped together and shown in FIG. 3C (A20.1 VHH is shown for comparison). Three independent experiments were performed and data were collected on a Beckman CytoFLEX Analyzer followed by analysis with FlowJo v10.6.2 (TreeStar). EC₅₀ values were calculated from FIG. 3C and recorded in Table 5. Based on the binding measured by flow cytometry, four affinity groups may be identified: medium (sdABP01/03), high (sdABP02/04/07), high-very high (sdABP05), and very high (sdABP06).

Experiment [3] has as its target T2, recombinant human DPEP-1 ectodomain (human, UniProt P16444 17-385, chemically biotinylated with NHS-LC-LC-Biotin in the SPR assay).
T2 construct: range 17-385; The limits 17-385 are given for the immunogen; also called hDPEP-1 ectodomain; hDPEP-1 ECD
T2 sequence (looked up): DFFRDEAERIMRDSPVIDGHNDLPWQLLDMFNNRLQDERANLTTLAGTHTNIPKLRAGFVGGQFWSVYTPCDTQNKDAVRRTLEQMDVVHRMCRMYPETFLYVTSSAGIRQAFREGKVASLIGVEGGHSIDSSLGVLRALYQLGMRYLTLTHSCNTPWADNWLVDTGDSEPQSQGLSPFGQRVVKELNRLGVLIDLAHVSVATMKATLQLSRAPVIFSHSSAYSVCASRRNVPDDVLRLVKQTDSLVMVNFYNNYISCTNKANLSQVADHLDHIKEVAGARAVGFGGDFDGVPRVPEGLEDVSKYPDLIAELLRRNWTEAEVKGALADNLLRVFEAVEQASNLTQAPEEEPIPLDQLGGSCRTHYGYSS
Kind of experiment: SPR, single-cycle kinetics, biotinylated hDPEP-1 ectodomain captured, VHH flowed; mean ± SD of triplicates. How it is done: (§3) The binding affinity of DPEP-1-specific VHHs was analyzed by surface plasmon resonance (SPR). Recombinant human DPEP-1 (hDPEP-1) ectodomain was chemically biotinylated using EZ-Link™ NHS-LC-LC-Biotin (Thermo Fisher, Cat #21343) following manufacturer instructions. Biotinylated recombinant hDPEP-1 ectodomain was then captured on CM5 sensorchip surfaces using Biotin CAPture reagent followed by flowing over surfaces VHHs at concentrations ranging from 0.625-10 nM (sdABP02), 2.5-40 nM (sdABP03/05/07), 6.25-100 nM (sdABP06) and 12.5-200 nM (sdABP01/04). Dark lines represent data points, light lines fit to the data. Data were generated in triplicates. Diagonal lines represent equilibrium dissociation constants, KDs. KD values (mean±SD) obtained in FIG. 2A are shown in Table 4. sdABP01 binding data gave poor fit to the 1:1 binding model. As a result, its KD could not be determined with certainty. A better fit was observed using the heterogeneous ligand binding model.
In general terms: In SPR one partner is held on a chip, and binding of the other changes the refractive index at the surface.

The target of experiment [4] is T2, recombinant human DPEP-1 ectodomain. Description: SPR single-cycle kinetics; biotinylated h-DPEP1 captured on the chip, VHH flowed over; 1:1 binding model, 25 C; one replicate of three [con't]. The procedure:
(§4) Recombinant human DPEP-1 was biotinylated as described in Example 3 and captured on CM5 sensorchip surfaces using Biotin CAPture reagent followed by flowing over surfaces VHHs at concentrations ranging from 0.625-10 nM (sdABP02), 2.5-40 nM (sdABP03/05/07), 6.25-100 nM (sdABP06) and 12.5-200 nM (sdABP01/04). Dark lines represent data points, light lines fit to the data. Data were generated in triplicates and data for one replicate set are shown.
as §3

Experiment [5] addresses T1, full length human DPEP-1 displayed on …. Description: flow cytometry on human DPEP-1-expressing cells, monomeric VHH (Table 8 restating Table 5). The procedure: as §1, §2
(Flow cytometry measures light scatter and fluorescence of single cells or particles in a stream.)

For experiment [6], the target named is T2, recombinant human DPEP-1 ectodomain. Description: SPR single-cycle kinetics; biotinylated h-DPEP1 captured on the chip, VHH flowed over; 1:1 binding model, 25 C; one replicate of three. How it is done: as §4, §3

A word on the EC50: it is the concentration giving half of the maximal effect. A lower EC50 goes with an effect from little substance. In general, Kd refers to the constant that tells how readily two partners part at equilibrium. The koff is the first-order rate constant of dissociation. By kon is commonly meant a measure of how fast the partners come together.

The molecule “Clostridium difficile toxin A-specific A20.1 VHH” showed a geometric mean fluorescence intensity (number above the histogram) in experiment [1] of 106.

B1: sdABP07 (VHH with BAP and His6 tags) (VHH)
VHH: EVQLVESGGGLVEYGGSLRLSCAASESTLDNYAIAWFRQAPGKEREVVSCVGKSGGRSDYADSVKGRFTISRDNAKNTVYLQMNSLKPEDTAVYSCAARRVWFGGCVLGTSQGQYDYWGQGTQVTVSS
modifications: biotin on the Biotinylation Acceptor Peptide in the flow cytometry and immunoprecipitation assays
notes: Monomeric llama VHH with BAP and His6; also called sdAb07
Regarding B1, the concentration giving a half-maximal response (EC50) in experiment [2] was found to be 15 nM. In addition, the Kd in experiment [3] came to 5.09 nM. For the same molecule, in experiment [4], the equilibrium dissociation constant (Kd) stood at 5.05 nM, the off-rate constant (koff) is 0.00835 s⁻¹ and the kon came to 1.65e+06 M⁻¹ s⁻¹. In experiment [5], a half-maximal effect (EC50) was put at 15 nM.

B2: sdABP03 (VHH with BAP and His6 tags) (VHH)
VHH: EVQLVESGGGLVQPGGSLRLSCATSEFTLDYYAIGWFRQAPGKEREGVSCISSSGGTTNYADSVKGRFTISSDNAKNTVSLQMNSLRPEDTAVYYCAAARVSAYYLGNYGCLNAEYGYWGQGTQVTVSS
modifications: biotin on the Biotinylation Acceptor Peptide in the flow cytometry and immunoprecipitation assays
notes: Monomeric llama VHH with BAP and His6; also called sdAb03
B2: a half-maximal response in experiment [2] (EC50) required 550 nM. In addition, in experiment [3], the Kd turned out to be 27 nM. Also, in experiment [4], the Kd was found to be 26.9 nM, the dissociation rate constant (koff) is 0.0605 s⁻¹ and the kon was found to be 2.25e+06 M⁻¹ s⁻¹. The molecule also gave an EC50 in experiment [5] of 550 nM.

B3: sdABP05 (VHH with BAP and His6 tags) (VHH)
VHH: EVQLVESGGGLVQPGGSLRLSCAASGFTFSTYAMTWVRKAPGKGFEWISSIDSGGGVTLYADSVKGRFTISKDNAKNTLYLQMNNLKPDDTAVYYCVKNYGSTSLQSRGQGTQVTVSS
modifications: biotin on the Biotinylation Acceptor Peptide in the flow cytometry and immunoprecipitation assays
notes: Monomeric llama VHH with BAP and His6; also called sdAb05
Take B3: in experiment [6], the Kd amounted to 12.8 nM, the koff was found to be 0.0276 s⁻¹ and the kon worked out at 2.15e+06 M⁻¹ s⁻¹. Besides, a half-maximal effect in experiment [2] (EC50) was put at 5.3 nM. Besides, the dissociation constant Kd in experiment [3] was 10.6 nM. In addition, the EC50 in experiment [5] was found to be 5.3 nM.

B4: sdABP06 (VHH with BAP and His6 tags) (VHH)
VHH: EVQLVDSGGGLVQPGGSLRLSCAASGFTFSNYDMSWVRQGPGKGPEWVSIISYVGGLTRYSDSVKGRFTISRDNAKNTLYLQMNSLNTEDTALYYCARVKSMHPTSTTGEYDYRGRGTQVTVSS
modifications: biotin on the Biotinylation Acceptor Peptide in the flow cytometry and immunoprecipitation assays
notes: Monomeric llama VHH with BAP and His6; also called sdAb06
B4 gave an EC50 in experiment [2] of 0.96 nM. Also, the Kd in experiment [3] came to 6.32 nM. Moreover, in experiment [4], the equilibrium dissociation constant (Kd) is 5.91 nM, the koff came out at 0.00103 s⁻¹ and the kon worked out at 175000 M⁻¹ s⁻¹. In experiment [5], this molecule showed a concentration for a half-maximal effect (EC50) of 0.96 nM.
